# Measured values from PMC5832994 (ACS Central Science, 2018).
# Where no end group is shown, it is not given here. Side-chain parts run from the residue outwards. The star is where a group is joined. PEG4 (disulfide) = PEG4 chain joined to the cysteine by a disulfide bond, carrying benzylguanine; benzylguanine = O6-benzylguanine; Octanoyl = CCCCCCCC(=O)*
# B1: GhrelON (peptide)
# peptide: GSS(Octanoyl)FLSPEHQRVQQRKESKKPPAKLQPRGGC([PEG4 (disulfide)-benzylguanine])G
# B2: ghrelinGGCG (peptide)
# peptide: GSS(Octanoyl)FLSPEHQRVQQRKESKKPPAKLQPRGGCG
# What was measured:
# SNAP_GLP-1R = SNAP_GLP-1R (UniProt P43220)
# SNAP_GLP-1R, sequence (P43220 whole entry): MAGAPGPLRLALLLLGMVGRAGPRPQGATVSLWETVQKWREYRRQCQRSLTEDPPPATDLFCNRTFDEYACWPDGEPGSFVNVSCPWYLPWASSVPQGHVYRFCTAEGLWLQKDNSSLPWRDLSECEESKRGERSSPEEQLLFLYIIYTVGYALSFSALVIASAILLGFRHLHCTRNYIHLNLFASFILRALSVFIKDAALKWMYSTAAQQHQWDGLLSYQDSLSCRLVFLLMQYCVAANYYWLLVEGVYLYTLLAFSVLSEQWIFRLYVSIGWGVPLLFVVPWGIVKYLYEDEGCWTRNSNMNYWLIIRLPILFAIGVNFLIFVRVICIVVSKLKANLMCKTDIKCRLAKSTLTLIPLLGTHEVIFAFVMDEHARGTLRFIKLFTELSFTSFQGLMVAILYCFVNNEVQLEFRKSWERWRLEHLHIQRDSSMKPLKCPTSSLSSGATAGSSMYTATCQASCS
# human GHS-R1a [1] = biological target: T1, human GHS-R1a (Homo sapiens, UniProt Q92847); experiment: Inositol phosphate (IP-1) accumulation assay, IP-One HTRF; format: cell-based; conditions: HEK293T-GHS-R1a cells; mean ± SEM, n = 2 assays in triplicate
# T1 construct: expressed in transfected cells; host or cells: HEK293T cells
# T1 sequence (Q92847 whole entry): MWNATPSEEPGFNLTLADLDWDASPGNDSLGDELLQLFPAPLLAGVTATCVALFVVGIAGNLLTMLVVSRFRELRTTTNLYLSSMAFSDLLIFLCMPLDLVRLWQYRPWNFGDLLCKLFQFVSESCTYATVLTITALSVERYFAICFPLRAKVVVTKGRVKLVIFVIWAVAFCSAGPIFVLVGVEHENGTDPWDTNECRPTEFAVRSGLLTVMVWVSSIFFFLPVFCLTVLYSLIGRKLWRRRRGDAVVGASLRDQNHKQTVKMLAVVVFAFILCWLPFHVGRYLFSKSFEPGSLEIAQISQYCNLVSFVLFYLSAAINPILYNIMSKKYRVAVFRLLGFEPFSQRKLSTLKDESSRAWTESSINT
# MIN6 cells [2] = experiment: Apoptosis assay (cleaved caspase 3 immunostaining); format: cell-based; conditions: 10 mM BME, 60 min incubation, n = 3 experiments
# Protocol: For quantification of apoptosis, MIN6 cells were incubated with 10 mM BME for the indicated times and fixed in 4% paraformaldehyde. Immunostaining was performed using an antibody against Cleaved Caspase 3 (CC3; 1:400; #9661, Cell Signaling Technology), before secondary goat antirabbit Alexa Fluor 633 (1:1000) and Hoechst 33342 staining. Cells were imaged using a Zeiss LSM 880 confocal microscope, with excitation delivered at λ = 405 nm and λ = 633 nm. Emitted signals were collected at λ = 410–550 nm and λ = 641–695 nm for Hoechst 33342 and Alexa Fluor 633, respectively. Total area was quantified using the threshold plugin for Fiji, and results were expressed as the ratio CC3/Hoechst, as described.[69]
# MIN6 cells [3] = experiment: Necrosis assay (propidium iodide/calcein); format: cell-based; conditions: 10 mM BME, 60 min incubation
# Protocol: For quantification of necrosis, MIN6 cells were labeled with 5 μM calcein-AM and 5 μM propidium iodide for 30 min. Cells were imaged in HEPES-bicarbonate buffer using the Crest X-Light spinning disk system, and excitation was performed at λ = 458–482 nm and λ = 543–558 nm for calcein and propidium iodide, respectively. Emitted signals were detected at λ = 500–550 nm and λ = 602–662 nm for calcein and propidium iodide, respectively. Total area was quantified using the threshold plugin for Fiji and expressed as the ratio propidium iodide/calcein, as described.[70]
# human GHS-R1a [4] = biological target: T2, human GHS-R1a (human, UniProt Q92847 1-366); experiment: cell-based or functional assay
# T2 sequence (Q92847 whole entry): as above
# human GHS-R1a [5] = biological target: T2, human GHS-R1a; experiment: AlphaScreen or HTRF; Tag-lite HTRF competition (Cisbio) on HEK293T-GHS-R1a cells; Ki calculated from binding curves; the labelled tracer is not named; as in ref. 72; n = 2 assays in triplicate; conditions: one partner purified
Molecule,EC50 of IP-1 accumulation (IP-One HTRF kit) in HEK293T-GHS-R1a cells (human GHS-R1a [4]) [nM],Ki (human GHS-R1a [5]) [nM],further results
S39C-Ex4 (peptide),–,–,"EC50 of cAMP accumulation (LANCE TR-FRET, 30 min) in YFP-AD293-SNAP GLP-1R cells (SNAP_GLP-1R): 0.0988 nM"
CCCCCCCC(=O)OC[C@H](NC(=O)[C@H](CO)NC(=O)CN)C(=O)N[C@@H](Cc1ccccc1)C(=O)N[C@@H](CC(C)C)C(=O)N[C@@H](CO)C(=O)N1CCC[C@H]1C(=O)N[C@@H](CCC(=O)O)C(=O)N[C@@H](Cc1c[nH]cn1)C(=O)N[C@@H](CCC(N)=O)C(=O)N[C@@H](CCCNC(=N)N)C(=O)N[C@H](C(=O)N[C@@H](CCC(N)=O)C(=O)N[C@@H](CCC(N)=O)C(=O)N[C@@H](CCCNC(=N)N)C(=O)N[C@@H](CCCCN)C(=O)N[C@@H](CCC(=O)O)C(=O)N[C@@H](CO)C(=O)N[C@@H](CCCCN)C(=O)N[C@@H](CCCCN)C(=O)N1CCC[C@H]1C(=O)N1CCC[C@H]1C(=O)N[C@@H](C)C(=O)N[C@@H](CCCCN)C(=O)N[C@@H](CC(C)C)C(=O)N[C@@H](CCC(N)=O)C(=O)N1CCC[C@H]1C(=O)N[C@@H](CCCNC(=N)N)C(=O)NCC(=O)NCC(=O)N[C@@H](CS)C(=O)NCC(=O)O)C(C)C [ghrelinGGCG],–,–,EC50 (human GHS-R1a [1]): 11.1 ± 0.4 nM
"OCCS [BME, beta-mercaptoethanol]",–,–,apoptosis (cleaved caspase 3) (MIN6 cells [2]): did not display significant signs of necrosis (Figure S4a) or apoptosis; necrosis (MIN6 cells [3]): did not display significant signs of necrosis
B1,5.5,6.1,–
B2,11.2,19.6,–
